Measurements: US20240270801A1, “EPITOPE PEPTIDE OF HUMAN ALPHA-SYNUCLEIN AND PHARMACEUTICAL COMPOSITION INCLUDING SAID PEPTIDE” (Sumitomo Pharma Co., Ltd., priority 2021, published 2024)
No end group written: not given here. KLH = keyhole limpet hemocyanin

Tests used:
aggregated human αSyn [1] = assay: Antibody-inducing ability in mice: ELISA antibody titer of immune serum with respect to aggregated human αSyn; type: in vivo, mouse
Summary of the method: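 Female balb/c mice (6 weeks) immunized i.m. twice, 2 weeks apart, with conjugate (250 μg/mouse) or KLH-DMPVDPDN (25 μg/mouse) plus Alum (50 μg/mouse); serum taken 2 weeks after second dose. ELISA on plates coated with aggregated human αSyn (15 ng/well), anti-mouse IgG-HRP, TMB, A450; titers expressed relative to reference conjugate set to 1 (log).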

aggregated human αSyn [2] = molecular target: aggregated human αSyn (Homo sapiens, UniProt P37840); assay: Aggregated human αSyn-neutralizing effect of antibody induced in mice: phosphorylation of human αSyn in SH-SY5Y cells; type: cell-based; set-up: purchased Stress Marq (StressMarq Biosciences Inc.); details: antibody (100 μg/mL) induced in C57BL/6 mice by the vaccine; FIG. 1B, isotype control = 100
Experimental: The aggregated human αSyn-neutralizing effect of the antibody induced in the mice by the AJ-human αSyn peptide conjugate (AJ-p54) produced in Example 1 was evaluated. Physiological saline or the AJ-human αSyn peptide conjugate (250 μg/mouse) was intramuscularly administered to C57BL/6 mice (males, 6 weeks old, CLEA Japan, Inc.) four times at a 2-week interval using CFA (DIFCO) as an adjuvant. Furthermore, KLH-DMPVDPDN (25 μg/mouse) was administered using Alum (InvivoGen, 50 μg/mouse) as an adjuvant. Two weeks after the fourth administration, serum was recovered. After recovering the antibodies comprised in the serum by Protein G HP SpinTrap (Cytiva), the human αSyn- and aggregated human αSyn-neutralizing effect was evaluated by a method described below.
As the human αSyn- and aggregated human αSyn-neutralizing effect, the influence on phosphorylation of human αSyn in SH-SY5Y cells (ATCC) was evaluated. The SH-SY5Y cells were seeded in a 96-well plate at 2×10^4 cells/well and cultured under the conditions of 37° C. and 5% CO2. […] After fixing the cells with a 4% paraformaldehyde/phosphate buffer solution (FUJIFILM Wako Pure Chemical Corporation), phosphorylated human αSyn was stained with a fluorescence-labeled anti-phosphorylated αSyn antibody (Cell Signaling). The amount of phosphorylated human αSyn was evaluated by image analysis using ArrayScan (Thermo Fisher Scientific Inc.). […]

Phosphorylation of human αSyn in SH-SY5Y cells to which aggregated human αSyn was added (aggregated human αSyn [2]): inhibited
Substance: KLH-C-DMPVDPDN ({KLH}-CDMPVDPDN) [KLH-DMPVDPDN, comparison vaccine, reference compound]
Antibody-inducing ability regarding the aggregated human αSyn (in words) (aggregated human αSyn [1]; Example 2, balb/c mice): very weak
Antibody titer with respect to aggregated human αSyn (N = 4 − 6, mean ± standard deviation) (aggregated human αSyn [1]; Example 2, balb/c mice, i.m. twice at 2-week interval, Alum, AJ conjugates 250 μg/mouse, KLH-DMPVDPDN 25 μg/mouse, serum 2 weeks after second administration): 208 ± 205
Induction of the antibody to aggregated human αSyn (in words) (aggregated human αSyn [1]; Example 4, balb/c mice): did not induce the antibody to aggregated human αSyn
Antibody titer with respect to aggregated human αSyn (mean ± standard deviation) (aggregated human αSyn [1]; Example 4, balb/c mice, i.m. twice at 2-week interval, Alum, AJ conjugates 250 μg/mouse, KLH-DMPVDPDN 25 μg/mouse): 36 ± 20
